For two molecules, IC50, Km and kcat results are on record in PMC10242683, “Catalytic Cycle of the Bifunctional Enzyme Phosphoribosyl-ATP Pyrophosphohydrolase/Phosphoribosyl-AMP Cyclohydrolase” (ACS Catalysis, 2023).

Data set [1] addresses T1, phosphoribosyl-ATP pyrophosphohydrolase/phosphoribosyl-AMP cyclohydrolase (AbHisIE) (Acinetobacter baumannii, UniProt V5VH18).
T1 construct: gene hisIE; full-length AbHisIE (A. baumannii strain ATCC17978), recombinant
T1 sequence (V5VH18 1-257): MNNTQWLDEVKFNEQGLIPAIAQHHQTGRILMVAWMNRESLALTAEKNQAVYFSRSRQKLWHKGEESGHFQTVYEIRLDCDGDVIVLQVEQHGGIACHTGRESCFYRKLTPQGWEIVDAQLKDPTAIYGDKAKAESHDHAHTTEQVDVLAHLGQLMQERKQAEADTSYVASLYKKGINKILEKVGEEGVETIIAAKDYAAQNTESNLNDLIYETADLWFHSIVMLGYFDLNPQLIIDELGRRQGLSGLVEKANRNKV
Put plainly: initial rates of ProFAR formation from PRATP at […] nm, dose-response with purified AbHisIE. The class given is biochemical.

Substrate in data set [2]: N=c1c2ncn([C@@H]3O[C@H](COP(=O)(O)O)[C@@H](O)[C@H]3O)c2ncn1[C@@H]1O[C@H](COP(=O)(O)O)[C@@H](O)[C@H]1O
The data set can be described thus: purified protein. It is filed as biochemical, Acinetobacter baumannii. As to conditions: Zn2+ (HisI-like domain) cyclohydrolase active site in the N-terminal HisI-like domain.

Substrate in data set [3]: N=c1c2ncn([C@@H]3O[C@H](COP(=O)(O)OP(=O)(O)OP(=O)(O)O)[C@@H](O)[C@H]3O)c2ncn1[C@@H]1O[C@H](COP(=O)(O)O)[C@@H](O)[C@H]1O
The data set can be described thus: purified protein. The class given is biochemical, Acinetobacter baumannii. The settings on record: Mg2+ (HisE-like domain); Zn2+ (HisI-like domain) pyrophosphohydrolase active site in the C-terminal HisE-like domain.

Turning to `N=c1c2ncn([C@@H]3O[C@H](COP(=O)(O)OP(=O)(O)O)[C@@H](O)[C@H]3O)c2ncn1[C@@H]1O[C@H](COP(=O)(O)O)[C@@H](O)[C@H]1O` [PRADP], in data set [1], the IC50 (commonly the concentration that inhibits the measured activity by half) is 52 ± 4 µM.

B1: phosphoribosyl-ATP pyrophosphohydrolase/phosphoribosyl-AMP cyclohydrolase (AbHisIE) (Acinetobacter baumannii) (protein)
chain: T1 sequence (V5VH18 1-257)
notes: full-length AbHisIE (A. baumannii strain ATCC17978), recombinant
Take B1: in the data set “purified protein [2]”, the Km (usually the concentration of substrate that gives half-maximal velocity) came out at 11 µM. In addition, in the data set “purified protein [3]”, the Km is 4.0 ± 0.7 µM; the kcat – broadly, the number of substrate molecules converted per active site and unit of time at saturation – was determined as 5.6 ± 0.3 s⁻¹.
